Laboratory results: publication PMC4768215, “Targeting surface-layer proteins with single-domain antibodies: a potential therapeutic approach against Clostridium difficile-associated disease” (Applied Microbiology and Biotechnology, 2015)

What was measured:
[1] = molecular target: T1, 630 SLP (surface layer protein of C. difficile strain 630, HMW and LMW subunits) (Clostridioides difficile 630 (ribotype …, UniProt Q183M8, strain)); assay: SPR; Biacore 3000; 630 SLP immobilised on a CM5 chip, VHHs injected at various concentrations; data not shown; details: both partners purified
T1 construct: low-molecular-weight (LMW) subunit of the surface layer protein, cut from the precursor SlpA by Cwp84, C. difficile strain 630 (ribotype 012); predicted mass 34.2 kDa; high-molecular-weight (HMW) subunit of the surface layer protein, cut from the precursor SlpA by Cwp84, C. difficile strain 630 (ribotype 012); predicted mass 39.5 kDa; Both subunits come from one precursor, SlpA; source: purified …

[2] = molecular target: T2, QCD-32g58 LMW SLP (low-molecular-weight subunit of the QCD-32g58 surface layer protein) (Clostridioides difficile QCD-32g58 …, UniProt A0A9R0BMB3, strain); assay: SPR; Biacore 3000; SEC-purified QCD-32g58 LMW SLP subunit amine-coupled to a CM5 chip; single-concentration screen, 200 nM VHH; 25 °C, 10 mM HEPES pH 7.4, 150 mM NaCl, 3 mM EDTA, 0.005 % P20; details: both partners purified
T2 construct: low-molecular-weight (LMW) subunit of the surface layer protein, cut from the precursor SlpA by Cwp84, C. difficile strain QCD-32g58 (ribotype 027); predicted mass 33.9 kDa; also called QCD-32g58 SLP LMW subunit; LMW subunit; source: purified from C. difficile QCD-32g58 (low-pH glycine extraction, minor SEC peak at about 15 ml); in the Western blot the LMW band of the extracted SLPs

[3] = molecular target: T3, SLP on cells of C. difficile strain BI-1 (ribotype 027) (Clostridioides difficile BI-1 (ribotype …, UniProt A0A9R0BMB3, strain)); assay: ELISA; whole cell ELISA: formalin-fixed C. difficile cells coated on MaxiSorp plates, His6-tagged VHH at 10 μg/ml in PBS-T, 37 °C, 1 h, detected with anti-His6-HRP; details: one partner purified
T3 construct: LMW subunit of the surface layer protein (from the precursor SlpA), C. difficile strain BI-1, ribotype 027; HMW subunit of the surface layer protein (from the precursor SlpA), C. difficile strain BI-1, ribotype 027; Whole cells were the antigen; source: endogenous, on formalin-fixed C. difficile BI-1 cells

[4] = molecular target: T4, SLP on cells of C. difficile strain 196 (ribotype 027) (Clostridioides difficile 196 (ribotype …, UniProt A0A9R0BMB3, strain)); assay: as above; details: one partner purified
T4 construct: LMW subunit of the surface layer protein (from the precursor SlpA), C. difficile strain 196, ribotype 027; HMW subunit of the surface layer protein (from the precursor SlpA), C. difficile strain 196, ribotype 027; Whole cells were the antigen; source: endogenous, on formalin-fixed C. difficile 196 cells

[5] = molecular target: T5, SLP on cells of C. difficile strain R20291 (ribotype 027) (Clostridioides difficile R20291 …, UniProt A0A9R0BMB3, strain); assay: as above; details: one partner purified
T5 construct: LMW subunit of the surface layer protein (from the precursor SlpA), C. difficile strain R20291, ribotype 027; HMW subunit of the surface layer protein (from the precursor SlpA), C. difficile strain R20291, ribotype 027; Whole cells were the antigen; source: endogenous, on formalin-fixed C. difficile R20291 cells

[6] = molecular target: T6, SLP on cells of C. difficile strain BI-7 (ribotype 027) (Clostridioides difficile BI-7 (ribotype …, UniProt A0A9R0BMB3, strain)); assay: as above; details: one partner purified
T6 construct: LMW subunit of the surface layer protein (from the precursor SlpA), C. difficile strain BI-7, ribotype 027; HMW subunit of the surface layer protein (from the precursor SlpA), C. difficile strain BI-7, ribotype 027; Whole cells were the antigen; source: endogenous, on formalin-fixed C. difficile BI-7 cells

[7] = molecular target: T7, QCD-32g58 SLP (surface layer protein of C. difficile strain QCD-32g58, HMW and LMW subunits) (Clostridioides difficile QCD-32g58 …, UniProt A0A9R0BMB3, strain); assay: SPR; Biacore 3000; SEC-purified QCD-32g58 SLP amine-coupled to a CM5 chip, VHH monomer fractions injected at various concentrations; 25 °C, 10 mM HEPES pH 7.4, 150 mM NaCl, 3 mM EDTA, 0.005 % P20; KD by steady-state analysis; details: both partners purified
T7 construct: low-molecular-weight (LMW) subunit of the surface layer protein, cut from the precursor SlpA by Cwp84, C. difficile strain QCD-32g58 (ribotype 027); predicted mass 33.9 kDa; high-molecular-weight (HMW) subunit of the surface layer protein, cut from the precursor SlpA by Cwp84, C. difficile strain QCD-32g58 (ribotype 027); predicted mass 44.2 kDa; Both subunits come from one precursor, SlpA; also …

[8] = molecular target: T7, QCD-32g58 SLP (surface layer protein of …); assay: SPR; Biacore 3000; fresh QCD-32g58 SLP surface on a CM5 chip, a single injection of each VHH (50 mM NaOH regeneration destroyed the surface); 25 °C, 10 mM HEPES pH 7.4, 150 mM NaCl, 3 mM EDTA, 0.005 % P20; KD from kinetic rate constants; details: both partners purified
[9] = molecular target: T7, QCD-32g58 SLP (surface layer protein of …); assay: SPR; Biacore 3000; SEC-purified QCD-32g58 SLP amine-coupled to a CM5 chip, VHH monomer fractions injected at various concentrations; 25 °C, 10 mM HEPES pH 7.4, 150 mM NaCl, 3 mM EDTA, 0.005 % P20, 20 μl/min; KD from kinetic rate constants; details: both partners purified
[10] = molecular target: T1, 630 SLP (surface layer protein of C. …); assay: ELISA; monoclonal phage ELISA: phage-displayed VHHs on immobilized SLPs; details: one partner purified

B1: SLP_VHH2 (VHH)
VHH: QVKLEESGGGLVQPGGSLRLSCAASGGTFTNYAMAWFRQTPGNDREFVGIISQKGGRTYYADSVKGRFSVSRDNAKNTAYLQMNSLKPEDTAVYYCAAGDSSYYYTRSRYDIWGQGTQVTVSS
notes: From an immune llama phage display library panned on QCD-32g58 SLP; source: monomeric SEC fractions for SPR; not shown: His6, C-terminal, kept
[1]
  Kd: 1000 nM
[2]
  Kd: 90 nM
  koff: 0.013 s⁻¹
  kon: 150000 M⁻¹ s⁻¹
[3]
  binding result: binds
[4]
  binding result: binds
[5]
  binding result: binds
[6]
  binding result: binds
[7]
  Kd: 230 nM

B2: SLP_VHH23 (VHH)
VHH: QVQLVESGGGLVQAGGSLRLSCAASGRTFSSYAVGWFRQAPGKEREFVAAISWSGGYTDYADSVKGRFTISRDNAKNTVYLQMNNLKPEDTAVYYCAADWSHPENKAELLRLRLWVLSAESSDDWGQGTQVTVSS
notes: as for B1
[1]
  binding result: no binding
[2]
  Kd: 3 nM
  koff: 0.00032 s⁻¹
  kon: 110000 M⁻¹ s⁻¹
[8]
  Kd: 4 nM
  koff: 0.00037 s⁻¹
  kon: 94000 M⁻¹ s⁻¹
[3]
  binding result: binds
[4]
  binding result: binds
[5]
  binding result: binds
[6]
  binding result: binds

B3: SLP_VHH46 (VHH)
VHH: QVKLEESGGGLVQAGGSLRLSCADSERTFRIYTMAWFRQAPGKERDFVAAISWSGGSTYYADSVKGRFTISRDNAKNTVYLPMNSLKPDDTAVYYCASGGVLSTGSQSDSEYDFWGQGTQVTVSS
notes: as for B1
[1]
  binding result: no binding
[2]
  Kd: 2 nM
  koff: 0.00032 s⁻¹
  kon: 150000 M⁻¹ s⁻¹
[9]
  Kd: 3 nM
  koff: 0.00034 s⁻¹
  kon: 110000 M⁻¹ s⁻¹
[3]
  binding result: binds
[4]
  binding result: binds
[5]
  binding result: binds
[6]
  binding result: binds

B4: SLP_VHH49 (VHH)
VHH: QVKLEESGGGLVQAGGSLRLSCAASEGAFSDALSRHAAGWFRQAPGKEREFVAAISWNGANTDYKNSVNNRFTISRDTSKNTVYLQMNSLKPEDTAVYYCAAKNEPSWISRIYYRGLEYDYWGQGTQVTVSS
notes: as for B1
[1]
  binding result: no binding
[2]
  Kd: 20 nM
  koff: 0.012 s⁻¹
  kon: 590000 M⁻¹ s⁻¹
[3]
  binding result: binds
[4]
  binding result: binds
[5]
  binding result: binds
[6]
  binding result: binds
[7]
  Kd: 48 nM

B5: SLP_VHH5 (VHH)
VHH: QVKLEESGGGLVQAGGSLRLSCAASRLTFSTYHMGWFRQAPGKEREFVAALSWSGGTTYYADSVKGRFGISRDNAKNTVYLQMNSLKPEDTAVYYCASGGVLATMNSDEYDYWGQGTQVTVSS
notes: as for B1
[2]
  Kd: 3 nM
  koff: 0.00041 s⁻¹
  kon: 140000 M⁻¹ s⁻¹
[9]
  Kd: 6 nM
  koff: 0.00046 s⁻¹
  kon: 82000 M⁻¹ s⁻¹
[3]
  binding result: binds
[4]
  binding result: binds
[5]
  binding result: binds
[6]
  binding result: binds

B6: SLP_VHH12 (VHH)
VHH: QVQLVESGGGLVQAGDSLRLSCAASGGTFSSYAVGWFRQAPGKERQFVAAISWSGRSTEYADSVKGRFTISRDNAKNTVYLQMNSLQPDDTGVYYCAADWSHPENKAELLRLRLWVLSAESSDYWGQGTQVTVSS
notes: as for B1
[1]
  binding result: no binding
[2]
  Kd: 1 nM
  koff: 0.00012 s⁻¹
  kon: 140000 M⁻¹ s⁻¹
[8]
  Kd: 3 nM
  koff: 0.00034 s⁻¹
  kon: 120000 M⁻¹ s⁻¹
[3]
  binding result: binds
[4]
  binding result: binds
[5]
  binding result: binds
[6]
  binding result: binds

B7: SLP_VHH12 displayed on phage (VHH)
VHH: QVQLVESGGGLVQAGDSLRLSCAASGGTFSSYAVGWFRQAPGKERQFVAAISWSGRSTEYADSVKGRFTISRDNAKNTVYLQMNSLQPDDTGVYYCAADWSHPENKAELLRLRLWVLSAESSDYWGQGTQVTVSS
notes: as the VHH of m3
[10]
  binding result: no binding

B8: SLP_VHH22 displayed on phage (VHH)
VHH: QVQLVESGGGLVQPGGSLRLSCAASGFTLDSYAIGWFRQAPGKEHEGISCISSNGGSTYYTDSVKGRFTISRDNAKNTVYLQMNSLESEDSAVYYCATVRRCSSLDMALGALATRTKGYDYWGQGTQVTVSS
notes: as the VHH of m4
[10]
  binding result: no binding

B9: SLP_VHH23 displayed on phage (VHH)
VHH: QVQLVESGGGLVQAGGSLRLSCAASGRTFSSYAVGWFRQAPGKEREFVAAISWSGGYTDYADSVKGRFTISRDNAKNTVYLQMNNLKPEDTAVYYCAADWSHPENKAELLRLRLWVLSAESSDDWGQGTQVTVSS
notes: as the VHH of m5
[10]
  binding result: no binding

B10: SLP_VHH46 displayed on phage (VHH)
VHH: QVKLEESGGGLVQAGGSLRLSCADSERTFRIYTMAWFRQAPGKERDFVAAISWSGGSTYYADSVKGRFTISRDNAKNTVYLPMNSLKPDDTAVYYCASGGVLSTGSQSDSEYDFWGQGTQVTVSS
notes: as the VHH of m7
[10]
  binding result: no binding

B11: SLP_VHH49 displayed on phage (VHH)
VHH: QVKLEESGGGLVQAGGSLRLSCAASEGAFSDALSRHAAGWFRQAPGKEREFVAAISWNGANTDYKNSVNNRFTISRDTSKNTVYLQMNSLKPEDTAVYYCAAKNEPSWISRIYYRGLEYDYWGQGTQVTVSS
notes: as the VHH of m8
[10]
  binding result: no binding

B12: SLP_VHH50 displayed on phage (VHH)
VHH: QVKLEESGGGLVQPGGSLRLSCAASGFTLDYYTIGWFRQAPGKEREGVACISSDDRTYYVDSVKGRFAISRDNVKNTVYLQMNNLKPEDTAVYYCASKESVFLIATMKGCAPGHDDYWGQGTQVTVSS
notes: as the VHH of m9
[10]
  binding result: no binding
